From paper PMC11804706 (Proceedings of the National Academy of Sciences of the …, 2025)

Legend:
[1] = target: DnaJ, wild type (E. coli) (UniProt P08622); assay: pull-down
ClpB, wild type = ClpB, wild type (E. coli, UniProt P63284 1-857); assay: BLI
ClpB, wild type, sequence (P63284 whole entry): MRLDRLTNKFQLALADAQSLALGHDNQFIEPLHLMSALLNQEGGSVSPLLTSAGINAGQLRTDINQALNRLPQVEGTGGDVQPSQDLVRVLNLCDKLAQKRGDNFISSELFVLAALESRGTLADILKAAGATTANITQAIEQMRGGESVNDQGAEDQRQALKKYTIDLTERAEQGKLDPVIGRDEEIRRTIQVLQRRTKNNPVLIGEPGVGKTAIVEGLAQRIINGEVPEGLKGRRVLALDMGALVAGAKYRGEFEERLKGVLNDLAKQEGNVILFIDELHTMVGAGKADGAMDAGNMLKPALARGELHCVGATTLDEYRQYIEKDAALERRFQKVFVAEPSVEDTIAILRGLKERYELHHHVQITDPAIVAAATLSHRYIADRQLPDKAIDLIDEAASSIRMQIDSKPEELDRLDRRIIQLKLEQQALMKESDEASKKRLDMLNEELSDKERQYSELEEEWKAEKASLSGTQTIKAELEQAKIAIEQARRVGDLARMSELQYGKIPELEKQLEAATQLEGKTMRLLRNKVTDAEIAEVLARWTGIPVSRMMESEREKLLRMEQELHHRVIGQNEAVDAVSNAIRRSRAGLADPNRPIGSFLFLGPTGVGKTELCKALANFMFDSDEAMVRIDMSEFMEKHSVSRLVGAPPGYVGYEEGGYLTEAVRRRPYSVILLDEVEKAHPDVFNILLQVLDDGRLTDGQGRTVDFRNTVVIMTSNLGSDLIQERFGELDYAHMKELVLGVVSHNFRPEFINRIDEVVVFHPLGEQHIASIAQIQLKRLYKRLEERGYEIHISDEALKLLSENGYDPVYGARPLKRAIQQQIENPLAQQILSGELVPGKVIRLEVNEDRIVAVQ

Molecule	binding as percent of wild-type ClpB [1] [%]	Kd (ClpB, wild type) [nM]
ΔN ClpB (ClpB mutant lacking the NTD) (domain or fragment)	40	–
DnaJ, wild type (natural protein, biotin (DnaJ-biotin in the pull-down assays with ClpB; sites not stated)) MAKQDYYEILGVSKTAEEREIRKAYKRLAMKYHPDRNQGDKEAEAKFKEIKEAYEVLTDSQKRAAYDQYGHAAFEQGGMGGGGFGGGADFSDIFGDVFGDIFGGGRGRQRAARGADLRYNMELTLEEAVRGVTKEIRIPTLEECDVCHGSGAKPGTQPQTCPTCHGSGQVQMRQGFFAVQQTCPHCQGRGTLIKDPCNKCHGHGRVERSKTLSVKIPAGVDTGDRIRLAGEGEAGEHGAPAGDLYVQVQVKQHPIFEREGNNLYCEVPINFAMAALGGEIEVPTLDGRVKLKVPGETQTGKLFRMRGKGVKSVRGGAQGDLLCRVVVETPVGLNERQKQLLQELQESFGGPTGEHNSPRSKSFFDGVKKFFDDLTR	–	55.2 ± 9.9
